# From the RNAGym collection of RNA variant scans (doi:10.1093/molbev/msab373)
# B1: Azoarcus group I ribozyme (parent)
# chain: GUGCCUUGCGCCGGGAAACCACGCAAGGGAUGGUGUCAAAUUCGGCGAAACCUAAGCGCCCGCCCGGGCGUAUGGCAACGCCGAGCCAAGCUUCGGCGCCUGCGCCGAUGAAGGUGUAGAGACUAGACGGCACCCACCUAAGGCAAACGCUAUGGUGAAGGCAUAGUCCAGGGAGUGGCGAAAGUCACACAAACCGG
# Variants of: B1
# Experiment: reverse-splicing fitness (ratio to wild type); higher = more active; in vitro selection; Mg2+ level not given
# Outline: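 An in vitro group I ribozyme library with randomized positions was T7-transcribed and gel-purified. In triplicate, 10 pmol RNA in EPPS pH 7.5 was reacted with 50 pmoles of a 30-nt RNA substrate for 1 h at 37 °C across several added MgCl2 levels (1–48 mM), then stopped with EDTA. Products were reverse transcribed from a substrate-complementary primer, PCR-amplified and sequenced (HiSeq 4000). Fitness is a variant's read proportion after selection over that before, normalised to wild type.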
row,Variant,reverse-splicing fitness
1,C82G A111C A120G A145G C150A C169U U176A,0.014
2,C82G A111C A120G A145G C150A C169U U176C,0.0159
3,C82G A111C A120U A145C C150G C169U,0.00395
4,C82G A111C A120U A145C C150G C169A,0.00373
5,C82G A111C A120U A145C C150G C169G,0.0033
6,C82G A111C A120G A145U C150G C169G U176A,0.0071
7,C82G A111C A120G A145U C150G C169G U176C,0.00521
8,C82G A111C A120G A145U C150G C169G U176G,0.00512
9,C82G A111C A120U A145C C150U U176A,0.00523
10,C82G A111C A120U A145C C150U U176C,0.00491
11,C82G A111C A120U A145C C150U U176G,0.00325
12,C82G A111C A120G A145C U176A,0.0152
13,C82G A111C A120G A145C U176C,0.0166
14,C82G A111C A120G A145C U176G,0.00507
15,C82G A111C A120U A145C C150A C169A U176C,0.00225
16,C82G A111C A120U A145C C150A C169A U176G,0.00281
17,C82G A111C A120U A145C C150A C169A U176A,0.00209
18,C82G A111C A120G A145U C150A C169U U176C,0.0124
19,C82G A111C A120G A145U C150A C169U U176G,0.00547
20,C82G A111C A120G A145U C150A C169U U176A,0.0169
21,C82G A111C A120U A145G C150U C169U,0.00642

row,Variant,reverse-splicing fitness
1,C82G A111C A120U A145G C150U C169A,0.00785
2,C82G A111C A120U A145G C150U C169G,0.00657
3,C82G A111C A120G A145U C150U U176C,0.0179
4,C82G A111C A120G A145U C150U U176G,0.00613
5,C82G A111C A120G A145U C150U U176A,0.0115
6,C82G A111C A120G C150U C169A U176C,0.0135
7,C82G A111C A120G C150U C169A U176A,0.0141
8,C82G A111C A120G C150U C169A U176G,0.00607
9,C82G A111C A120U A145C C169G U176A,0.00322
10,C82G A111C A120U A145C C169G U176C,0.00339
11,C82G A111C A120U A145C C169G U176G,0.00197
12,C82G A111C A120U A145C C150A C169A,0.00203
13,C82G A111C A120U A145C C150A C169G,0.00326
14,C82G A111C A120U A145C C150A C169U,0.00329
15,C82G A111C A120U A145G C150A U176A,0.00773
16,C82G A111C A120U A145G C150A U176C,0.0086
17,C82G A111C A120U A145G C150A U176G,0.00353
18,C82G A111C A120G A145C C150U U176C,0.0125
19,C82G A111C A120G A145C C150U U176G,0.00478
20,C82G A111C A120G A145C C150U U176A,0.0103
21,C82G A111C A120G A145G C169G U176A,0.0188

row,Variant,reverse-splicing fitness
1,C82G A111C A120G A145G C169G U176C,0.0288
2,C82G A111C A120G A145G C169G U176G,0.00514
3,C82G A111C A120G C150U U176A,0.0119
4,C82G A111C A120G C150U U176C,0.0217
5,C82G A111C A120G C150U U176G,0.00715
6,C82G A111C A120G A145G C150U U176G,0.00692
7,C82G A111C A120G A145G C150U U176A,0.0105
8,C82G A111C A120G A145G C150U U176C,0.0183
9,C82G A111C A120U A145G C150G U176A,0.00628
10,C82G A111C A120U A145G C150G U176G,0.00447
11,C82G A111C A120U A145G C150G U176C,0.009
12,C82G A111C A120U A145G C150G C169A U176C,0.00861
13,C82G A111C A120U A145G C150G C169A U176A,0.0121
14,C82G A111C A120U A145G C150G C169A U176G,0.00544
15,C82G A111C A120G C150A C169A U176C,0.0214
16,C82G A111C A120G C150A C169A U176A,0.0179
17,C82G A111C A120G C150A C169A U176G,0.00716
18,C82G A111C A120U,0.0509
19,C82G A111C A120G A145U C150A C169A U176C,0.0105
20,C82G A111C A120G A145U C150A C169A U176A,0.0128
21,C82G A111C A120G A145U C150A C169A U176G,0.00581

row,Variant,reverse-splicing fitness
1,C82G A111C A120G C169U U176G,0.00516
2,C82G A111C A120G C169U U176A,0.0181
3,C82G A111C A120G C169U U176C,0.0141
4,C82G A111C A120G A145C C150U C169G,0.00885
5,C82G A111C A120G A145C C150U C169A,0.00816
6,C82G A111C A120G A145C C150U C169U,0.00687
7,C82G A111C A120G A145G C150U C169U,0.011
8,C82G A111C A120G A145G C150U C169A,0.0112
9,C82G A111C A120G A145G C150U C169G,0.0134
10,C82G A111C A120G A145C C169G U176A,0.0233
11,C82G A111C A120G A145C C169G U176G,0.00429
12,C82G A111C A120G A145C C169G U176C,0.0171
13,C82G A111C A120G A145C C169G,0.0134
14,C82G A111C A120G A145C C169A,0.00807
15,C82G A111C A120G A145C C169U,0.00967
16,C82G A111C A120G C150U C169A,0.0111
17,C82G A111C A120G C150U C169U,0.00939
18,C82G A111C A120G C150U C169G,0.0113
19,C82G A111C A120U A145C C169A U176C,0.00237
20,C82G A111C A120U A145C C169A U176A,0.0016
